Data on one molecule can be found in patent US20230035748A1.

Test in all cases: pull-down from MDA-MB-231 cell lysate with CT20p-biotin and streptavidin-agarose beads, excised gel band, mass spectrometry
For assay [1], the target named is Cellular tumor antigen p53 (human) (UniProt P04637).
The target of assay [2] is Coatomer subunit beta (human) (UniProt P35606).
The target in assay [3] is Coatomer subunit gamma-1 (human) (UniProt Q9Y678).
Assay [4] addresses Hsp90 co-chaperone Cdc37 (human) (UniProt Q16543).
Another assay concerns the target Huntingtin (human) (UniProt P42858).
A further assay has as its target Reticulocalbin-2 (human) (UniProt Q14257).
In assay [5] the target is Signal transducer and activator of transcription 1-alpha/beta (human) (UniProt P42224).
In assay [6] the target is Signal transducer and activator of transcription 3 (human) (UniProt P40763).
Assay [7] deals with T-complex protein 1 subunit alpha (human) (UniProt P17987).
Assay [8] concerns the target T-complex protein 1 subunit delta (human) (UniProt P50991).
Assay [9] concerns the target T-complex protein 1 subunit epsilon (human) (UniProt P48643).
Assay [10] addresses T-complex protein 1 subunit eta (human) (UniProt Q99832).
The target in assay [11] is T-complex protein 1 subunit gamma (human) (UniProt P49368).
Assay [12] deals with T-complex protein 1 subunit zeta (human) (UniProt P40227).

No end group written: not given here.

Chain of UniProt P04637 (P04637 whole entry): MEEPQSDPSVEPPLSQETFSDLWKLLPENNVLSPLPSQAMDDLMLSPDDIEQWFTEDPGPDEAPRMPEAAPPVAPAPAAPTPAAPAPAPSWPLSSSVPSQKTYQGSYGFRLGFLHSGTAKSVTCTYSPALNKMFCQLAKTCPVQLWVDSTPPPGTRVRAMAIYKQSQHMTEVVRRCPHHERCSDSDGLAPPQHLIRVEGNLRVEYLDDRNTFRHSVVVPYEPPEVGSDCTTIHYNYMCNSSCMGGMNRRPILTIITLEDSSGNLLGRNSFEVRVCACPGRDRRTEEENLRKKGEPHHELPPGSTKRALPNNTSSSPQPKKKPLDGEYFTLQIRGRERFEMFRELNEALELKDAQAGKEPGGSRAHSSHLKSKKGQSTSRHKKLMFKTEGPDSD
Chain of UniProt P42858 (P42858 whole entry): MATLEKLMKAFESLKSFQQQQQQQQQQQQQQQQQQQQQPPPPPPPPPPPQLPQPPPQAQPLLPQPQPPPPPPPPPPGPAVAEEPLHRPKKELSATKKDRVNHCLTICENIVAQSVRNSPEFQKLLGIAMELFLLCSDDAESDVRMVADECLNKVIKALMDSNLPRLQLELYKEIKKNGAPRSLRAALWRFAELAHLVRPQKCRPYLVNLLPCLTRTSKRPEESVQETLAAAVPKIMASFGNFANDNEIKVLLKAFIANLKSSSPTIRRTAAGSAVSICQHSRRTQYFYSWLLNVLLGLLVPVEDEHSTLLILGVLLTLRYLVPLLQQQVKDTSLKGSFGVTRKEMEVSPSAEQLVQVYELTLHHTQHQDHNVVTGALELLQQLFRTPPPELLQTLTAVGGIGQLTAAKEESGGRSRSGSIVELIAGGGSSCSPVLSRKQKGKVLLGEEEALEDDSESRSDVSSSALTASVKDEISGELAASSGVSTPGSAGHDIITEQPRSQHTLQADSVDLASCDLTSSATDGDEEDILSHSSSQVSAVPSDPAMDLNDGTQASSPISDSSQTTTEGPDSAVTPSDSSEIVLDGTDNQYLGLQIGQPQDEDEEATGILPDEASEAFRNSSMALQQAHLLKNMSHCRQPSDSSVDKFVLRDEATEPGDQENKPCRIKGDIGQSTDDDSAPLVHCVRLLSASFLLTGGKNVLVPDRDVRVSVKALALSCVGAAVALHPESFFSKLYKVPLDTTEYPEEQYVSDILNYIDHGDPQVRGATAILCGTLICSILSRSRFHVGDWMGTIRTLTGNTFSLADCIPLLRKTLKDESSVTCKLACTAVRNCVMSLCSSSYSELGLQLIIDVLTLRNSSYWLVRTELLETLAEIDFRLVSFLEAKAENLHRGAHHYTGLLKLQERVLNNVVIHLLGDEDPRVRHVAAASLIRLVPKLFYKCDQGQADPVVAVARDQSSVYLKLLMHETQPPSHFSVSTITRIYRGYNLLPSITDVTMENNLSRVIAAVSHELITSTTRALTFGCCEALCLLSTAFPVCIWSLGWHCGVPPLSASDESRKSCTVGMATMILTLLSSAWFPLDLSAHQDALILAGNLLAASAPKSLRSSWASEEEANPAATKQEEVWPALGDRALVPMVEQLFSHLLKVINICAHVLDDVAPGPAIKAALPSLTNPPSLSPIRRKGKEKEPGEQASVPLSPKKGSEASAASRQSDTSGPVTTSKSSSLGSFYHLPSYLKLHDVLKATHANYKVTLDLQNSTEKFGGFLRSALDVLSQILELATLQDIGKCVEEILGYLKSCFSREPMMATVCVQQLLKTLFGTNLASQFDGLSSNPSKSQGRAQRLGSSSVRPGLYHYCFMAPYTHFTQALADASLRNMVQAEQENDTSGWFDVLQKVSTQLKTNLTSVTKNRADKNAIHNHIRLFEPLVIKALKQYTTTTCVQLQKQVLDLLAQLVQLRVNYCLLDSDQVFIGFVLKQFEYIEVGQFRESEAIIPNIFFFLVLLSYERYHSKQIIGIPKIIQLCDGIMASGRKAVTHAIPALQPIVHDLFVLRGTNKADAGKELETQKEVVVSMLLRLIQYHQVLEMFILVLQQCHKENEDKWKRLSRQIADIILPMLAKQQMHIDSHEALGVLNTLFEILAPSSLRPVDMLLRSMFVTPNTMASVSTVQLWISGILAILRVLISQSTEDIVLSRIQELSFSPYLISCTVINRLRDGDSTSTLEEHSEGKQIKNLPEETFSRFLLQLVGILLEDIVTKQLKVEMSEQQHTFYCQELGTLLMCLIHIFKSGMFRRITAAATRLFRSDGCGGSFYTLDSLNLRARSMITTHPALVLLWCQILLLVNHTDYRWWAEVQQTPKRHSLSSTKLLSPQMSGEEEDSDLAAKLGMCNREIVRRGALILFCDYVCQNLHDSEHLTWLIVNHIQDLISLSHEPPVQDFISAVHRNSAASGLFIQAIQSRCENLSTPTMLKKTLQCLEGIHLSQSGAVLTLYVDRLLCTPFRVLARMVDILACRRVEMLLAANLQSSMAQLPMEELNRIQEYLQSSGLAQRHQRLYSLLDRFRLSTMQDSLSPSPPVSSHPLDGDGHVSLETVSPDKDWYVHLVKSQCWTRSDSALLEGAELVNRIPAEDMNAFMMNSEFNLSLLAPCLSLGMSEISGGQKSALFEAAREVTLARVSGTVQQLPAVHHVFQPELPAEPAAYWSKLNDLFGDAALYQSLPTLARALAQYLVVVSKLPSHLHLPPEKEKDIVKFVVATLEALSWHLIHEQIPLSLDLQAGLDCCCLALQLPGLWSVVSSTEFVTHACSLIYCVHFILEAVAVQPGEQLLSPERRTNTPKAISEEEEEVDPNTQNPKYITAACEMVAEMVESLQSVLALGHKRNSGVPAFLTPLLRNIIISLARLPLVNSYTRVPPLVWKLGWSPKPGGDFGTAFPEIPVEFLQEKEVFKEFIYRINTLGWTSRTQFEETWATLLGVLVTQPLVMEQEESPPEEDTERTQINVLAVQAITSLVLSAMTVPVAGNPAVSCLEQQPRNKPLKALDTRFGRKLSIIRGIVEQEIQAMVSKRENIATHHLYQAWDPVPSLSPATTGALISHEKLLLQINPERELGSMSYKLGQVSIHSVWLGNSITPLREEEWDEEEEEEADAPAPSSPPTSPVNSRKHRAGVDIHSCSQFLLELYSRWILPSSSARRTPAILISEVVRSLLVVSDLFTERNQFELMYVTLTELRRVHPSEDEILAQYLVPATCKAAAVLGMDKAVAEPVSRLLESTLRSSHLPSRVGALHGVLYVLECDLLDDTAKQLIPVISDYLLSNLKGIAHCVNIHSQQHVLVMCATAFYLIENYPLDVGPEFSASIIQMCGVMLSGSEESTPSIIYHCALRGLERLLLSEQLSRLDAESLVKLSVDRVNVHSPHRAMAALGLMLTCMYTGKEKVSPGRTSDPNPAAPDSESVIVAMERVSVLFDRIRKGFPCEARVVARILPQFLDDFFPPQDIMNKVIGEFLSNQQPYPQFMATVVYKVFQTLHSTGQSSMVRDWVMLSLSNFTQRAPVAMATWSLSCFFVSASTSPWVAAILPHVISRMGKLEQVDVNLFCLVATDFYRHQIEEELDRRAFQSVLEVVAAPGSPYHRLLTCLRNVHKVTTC
Chain of UniProt Q99832 (Q99832 whole entry, one chain of several): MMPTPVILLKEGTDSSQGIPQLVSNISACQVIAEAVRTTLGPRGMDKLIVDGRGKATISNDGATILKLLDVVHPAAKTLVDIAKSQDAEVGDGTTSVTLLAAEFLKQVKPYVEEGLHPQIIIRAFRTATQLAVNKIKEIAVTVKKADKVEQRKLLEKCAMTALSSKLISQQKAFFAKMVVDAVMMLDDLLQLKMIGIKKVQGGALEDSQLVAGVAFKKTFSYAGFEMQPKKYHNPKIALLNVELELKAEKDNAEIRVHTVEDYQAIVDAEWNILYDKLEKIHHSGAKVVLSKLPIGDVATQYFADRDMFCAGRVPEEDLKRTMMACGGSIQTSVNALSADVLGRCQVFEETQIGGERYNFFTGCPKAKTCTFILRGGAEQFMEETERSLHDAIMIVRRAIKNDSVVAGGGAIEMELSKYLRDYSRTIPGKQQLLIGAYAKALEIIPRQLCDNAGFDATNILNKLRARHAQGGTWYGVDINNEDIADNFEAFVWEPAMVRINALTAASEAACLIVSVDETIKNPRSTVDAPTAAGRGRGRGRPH
Chain of UniProt P40227 (P40227 2-531 limits assumed, one chain of several): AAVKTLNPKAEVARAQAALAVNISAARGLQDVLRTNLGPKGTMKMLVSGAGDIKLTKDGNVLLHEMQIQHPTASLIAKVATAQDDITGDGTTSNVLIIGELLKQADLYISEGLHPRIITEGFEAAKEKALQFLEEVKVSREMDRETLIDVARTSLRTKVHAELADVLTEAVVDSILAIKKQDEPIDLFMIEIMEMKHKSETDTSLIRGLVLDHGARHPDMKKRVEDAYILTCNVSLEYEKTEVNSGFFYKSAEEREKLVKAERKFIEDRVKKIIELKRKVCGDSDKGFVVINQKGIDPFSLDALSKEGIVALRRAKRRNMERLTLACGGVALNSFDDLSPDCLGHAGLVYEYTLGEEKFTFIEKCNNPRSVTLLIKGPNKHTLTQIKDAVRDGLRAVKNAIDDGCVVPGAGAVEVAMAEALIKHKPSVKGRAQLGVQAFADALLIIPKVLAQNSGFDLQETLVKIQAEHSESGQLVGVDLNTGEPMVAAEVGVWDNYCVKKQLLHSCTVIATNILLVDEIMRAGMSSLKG
Chain of UniProt Q16543 (Q16543 whole entry): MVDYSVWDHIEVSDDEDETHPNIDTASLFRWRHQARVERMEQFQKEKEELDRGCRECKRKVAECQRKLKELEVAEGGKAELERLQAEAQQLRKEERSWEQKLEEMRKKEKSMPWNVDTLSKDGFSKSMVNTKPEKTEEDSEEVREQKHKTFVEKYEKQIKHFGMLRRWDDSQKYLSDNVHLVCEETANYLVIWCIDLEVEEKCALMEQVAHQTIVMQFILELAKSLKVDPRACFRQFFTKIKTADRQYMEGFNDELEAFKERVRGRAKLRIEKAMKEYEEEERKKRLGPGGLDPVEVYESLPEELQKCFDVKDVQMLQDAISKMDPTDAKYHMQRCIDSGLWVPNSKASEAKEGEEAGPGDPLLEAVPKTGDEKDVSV

Consider VTIFVAGVLTASLTIWKKMG (also: biotin tag, site not given here) [biotin-tagged CT20p], for which the No. of unique peptides in assay [1] amounted to 1 peptides; in [2], 6 peptides; in [3], 6 peptides; in [4], 2 peptides; with Huntingtin (human) it was 1 peptides; with Reticulocalbin-2 (human) it was 10 peptides. Besides, the No. of unique peptides in assay [5] stood at 7 peptides; in assay [6], 2 peptides; in [7] it was 2 peptides; in assay [8], 4 peptides; in assay [9] it was 2 peptides; in assay [10] it was 3 peptides. Further, the figures for the No. of unique peptides in assay [11] and in [12] were 3 peptides and 2 peptides, respectively.
